Target: T1, retinal guanylate cyclase 1 (mouse (endogenous in retina), UniProt P52785 55-1108)
T1 construct: retinal guanylate cyclase 1 (GC-1), mouse, endogenous in the retina; Endogenous protein precipitated by the anti-GC-1 antibody 1S4 and detected by Western blotting; also called GC-1; RetGC1
T1 sequence (looked up): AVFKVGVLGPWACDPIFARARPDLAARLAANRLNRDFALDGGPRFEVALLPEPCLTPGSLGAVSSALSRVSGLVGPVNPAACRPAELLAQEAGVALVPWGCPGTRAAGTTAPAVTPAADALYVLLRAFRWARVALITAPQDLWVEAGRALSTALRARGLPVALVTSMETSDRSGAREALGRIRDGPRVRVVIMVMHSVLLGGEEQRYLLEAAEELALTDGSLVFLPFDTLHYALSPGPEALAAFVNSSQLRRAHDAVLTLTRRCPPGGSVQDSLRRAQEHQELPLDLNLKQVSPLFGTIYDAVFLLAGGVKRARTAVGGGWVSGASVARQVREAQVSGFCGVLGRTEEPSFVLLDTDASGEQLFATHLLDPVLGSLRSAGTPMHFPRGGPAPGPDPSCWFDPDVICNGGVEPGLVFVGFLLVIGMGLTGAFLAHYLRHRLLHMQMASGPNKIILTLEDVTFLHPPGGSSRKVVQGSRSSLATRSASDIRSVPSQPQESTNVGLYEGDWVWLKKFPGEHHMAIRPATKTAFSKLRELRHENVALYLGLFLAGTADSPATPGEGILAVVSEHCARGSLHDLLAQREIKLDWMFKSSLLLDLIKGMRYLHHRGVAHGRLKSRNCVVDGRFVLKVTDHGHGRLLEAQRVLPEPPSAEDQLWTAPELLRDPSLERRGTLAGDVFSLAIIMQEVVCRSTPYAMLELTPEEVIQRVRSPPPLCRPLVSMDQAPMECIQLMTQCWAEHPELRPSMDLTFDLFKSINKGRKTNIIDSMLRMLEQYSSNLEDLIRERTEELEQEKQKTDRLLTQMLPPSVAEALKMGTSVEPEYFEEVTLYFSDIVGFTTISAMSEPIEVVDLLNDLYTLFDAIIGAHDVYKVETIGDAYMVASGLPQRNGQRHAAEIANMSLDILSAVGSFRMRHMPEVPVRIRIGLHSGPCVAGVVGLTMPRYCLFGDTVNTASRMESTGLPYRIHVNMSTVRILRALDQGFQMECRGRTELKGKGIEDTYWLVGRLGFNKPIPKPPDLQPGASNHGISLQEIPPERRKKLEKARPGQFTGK
Assay: co-IP; Rho+/- mouse retinal lysate; anti-GC-1 antibody 1S4 (0.2 μg), minimal amount (5 μl) of protein A/G magnetic beads; eluate analysed by Western blotting for GC-1 and rhodopsin; control: non-immune mouse IgG
Settings: partners not purified

B1: rhodopsin (receptor, mouse (endogenous in retina), UniProt P15409 1-348, looked up)
chain: MNGTEGPNFYVPFSNVTGVVRSPFEQPQYYLAEPWQFSMLAAYMFLLIVLGFPINFLTLYVTVQHKKLRTPLNYILLNLAVADLFMVFGGFTTTLYTSLHGYFVFGPTGCNLEGFFATLGGEIALWSLVVLAIERYVVVCKPMSNFRFGENHAIMGVVFTWIMALACAAPPLVGWSRYIPEGMQCSCGIDYYTLKPEVNNESFVIYMFVVHFTIPMIVIFFCYGQLVFTVKEAAAQQQESATTQKAEKEVTRMVIIMVIFFLICWLPYASVAFYIFTHQGSNFGPIFMTLPAFFAKSSSIYNPVIYIMLNKQFRNCMLTTLCCGKNPLGDDDASATASKTETSQVAPA
notes: rhodopsin, mouse, endogenous in the retina; Endogenous protein precipitated by, or detected with, the anti-rhodopsin antibody 1D4
fold of rhodopsin precipitation with anti-GC-1 antibody over non-specific background with non-immune IgG: 6.5 fold

— PMC4709261, “Guanylate cyclase 1 relies on rhodopsin for intracellular stability and ciliary trafficking” (eLife, 2015)
